{"source": "the nanobody polyreactivity screen of Harvey et al. (2022)", "assay": "yeast display, Sf9 membrane polyspecificity reagent, FACS + sequencing; frameworks hold sequencing errors", "how_it_was_run": "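Genes from sorted yeast were amplified by colony PCR, read by MiSeq 2 × 250 sequencing and filtered on CDR length. These cells carried a synthetic nanobody library in Saccharomyces cerevisiae BJ5465 and were sorted by FACS into low and high (top ~1%) gates on anti-HA and streptavidin fluorescence. Polyreactivity is labelled according to the gate of origin.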"}
{"sequence": "QLQLVESGGGLVQAGGSLRFSCAASGFTFVWYVRGWYRQAPVKARELVASSTSTGSTNYADSVKGRYTISRDNAKNTVYLQMNSLKPEDTAVYYCNARGSYKRTRYGKWGQGTQVTVSS", "values": [{"measurement": "polyreactivity (PSR sort gate)", "value": "high polyreactivity"}]}
{"sequence": "QVQLVESGGGLVQAGGSLRLSCAASGRIFALNVMGWYRQAPVKERELFAVINRSGNTNYADSVKGRFTSSRDNAKNTVYLQMNSLKPEDTAVYYCAARRVGYGTDRYYGYDSWGQGTQVTVSS", "values": [{"measurement": "polyreactivity (PSR sort gate)", "value": "high polyreactivity"}]}
{"sequence": "QVQLVESGGGLVQAGGSLRLICAASGRIFKWYAMGWYRQAPGKERELVATITWSGGSTYYADSVKGRFTISRDNAKNTVYLQMNSLKPEDTAVYNCNADTWLALPGFDYWGQGTQVTVSS", "values": [{"measurement": "polyreactivity (PSR sort gate)", "value": "high polyreactivity"}]}
{"sequence": "PVQLVESGGGLVQAGGSLRLSCAASGFTFSYYAMGWYRQAPGQEWELVAGIDDSCGSTYYADSVKGRFTISRDNAKNTVELQMNSLKPEDTAFYYCNAVYARKYYYSHGYDYWGQGTQVTVSS", "values": [{"measurement": "polyreactivity (PSR sort gate)", "value": "high polyreactivity"}]}
{"sequence": "QVQLVESGGGLVQAGGSLRLSCAASGSNFYSYVMGWYRQAPGKERELVAAISRNGQSTYYADSVKGRFTISRDNAKNTVYLQMNSLKPEDTAVYYCAARSRDKYDYWGQGTQVTVSS", "values": [{"measurement": "polyreactivity (PSR sort gate)", "value": "high polyreactivity"}]}
{"sequence": "QVQLVESGGGLVQAGGSLRLSCAASGSTFVVYAMGWYRQAPGKERELLAAIRANVGGTYYADSVKGRFTISRDNAKNTVYLQMNSLKPEDTAVYYCAAGGYYYNPSFTYGILDYEYCGQGTQVTVSS", "values": [{"measurement": "polyreactivity (PSR sort gate)", "value": "low polyreactivity"}]}
{"sequence": "QVQLVESGGGLVQAGGSLRLSCAASGFILDTYGMGWYRQAPGKERELVAAISQSDVSTYYADSVKGRFTISRDNAKNTVYLQMNSLKQEDTAVYYCAADRGGLRWFWQVVYDYWGQGTQVTVSS", "values": [{"measurement": "polyreactivity (PSR sort gate)", "value": "low polyreactivity"}]}
{"sequence": "QVQLVESGGGLVQAGGSLRLSCAASGSIFLYYAMGWYRQAPGKERELVAAITGGGGTNYADSVKGRFTISRDNAKNTVYLQMNSLKPEDTAVYYCAADTSGQFPYSYYNYDYDYWGQGTQVTVSS", "values": [{"measurement": "polyreactivity (PSR sort gate)", "value": "low polyreactivity"}]}
{"sequence": "QVQLVESGGGLVQAGGSLRLSCAASGFIFRGYAMGWYRQAPGKERELVAAITSSGGDTYYADSVKGRFTISRDNAKNTVYLQMNSLKPEDTAVYYCNARVYASGTEGDYWGQGTQVTVSS", "values": [{"measurement": "polyreactivity (PSR sort gate)", "value": "low polyreactivity"}]}
{"sequence": "QVQLVESGGGLVQAGGSLRLSCAASGRTFPYYAMGWYRQAPGKERELVAAISYSGGTTYYADSVKGRFTISRDNAKNTVYLQMNSLKPEDTAVYYCAAERAILSSDKQSLWRFDYWGQGTQVTVSS", "values": [{"measurement": "polyreactivity (PSR sort gate)", "value": "low polyreactivity"}]}
{"sequence": "QVQLVESGGGLVQAGGSLRLSSAASRITFDQNAMGWYRQAPGKERELVAAITRGSSTNYADSVKGRFTISRDNAKNTVYLQMNSLKPEDTAVYYCNADGYARFRTYYSRDTREYDYWGQGTQVTVSS", "values": [{"measurement": "polyreactivity (PSR sort gate)", "value": "low polyreactivity"}]}
{"sequence": "QVQLVESGGGLVLAGGSLRLSCAASGTIFGYYAMGWYRQAPGKDRELVAAITSDGDTYYADSVKGRFTISRDNAKNTVYLQMNSLKPEDTAVYYCNATYGGPYYIQYDYWGQGTQVTVSS", "values": [{"measurement": "polyreactivity (PSR sort gate)", "value": "low polyreactivity"}]}
{"sequence": "QFQLVESGGGLVQAGGSLRLSCAASGGTFNQYAMGWYRQAPGKEREFVASISRRGGSTYYADSVKGRFTISRDNAKNTVDLQMNSLKPEDTAVYYCAADAFFRLDYYYWGQGTQVTVSS", "values": [{"measurement": "polyreactivity (PSR sort gate)", "value": "high polyreactivity"}]}
{"sequence": "QVQLVESGGGLVQAGGSLRLSCAASGSTFYLNALGGYRQAPGKEREFVAAIDTGTGTYYADSVKGRFTISRDNAKNTVYLQMNRLKPEDTAVYYCAKDDLLVVRNVWFDYWGQGTQVTVSS", "values": [{"measurement": "polyreactivity (PSR sort gate)", "value": "low polyreactivity"}]}
{"sequence": "QVQLVESGGGLVQAGGSLRLSCAASGSTFTPYAMGWYRQAPGQEREFVAAITSIGGSTYYADSVKGRITISRDNAKNTVYLQMIRLKPEDTAVYNCAADYSEWTLWNDYWGQCTQVTVSS", "values": [{"measurement": "polyreactivity (PSR sort gate)", "value": "high polyreactivity"}]}
{"sequence": "QVQLVESGGGLVQAGGSLRLSCAASGYTFRGYAMGWYRQAPGKERELVAAISWSGGRTYYADSVKVRFTISRDNAKNTVYLQMNSLKPEDTAVYYCDAETHVGWPAKFDYWGQGTQVTVSS", "values": [{"measurement": "polyreactivity (PSR sort gate)", "value": "high polyreactivity"}]}
{"sequence": "QVQLVESGGGLVQAGGSLRLSCAASGFTIRYYTMGWYRQAPGKERELVAAITWSGGRTYYADSVKGRFTISRDNAKNTVYLQMNSLKPDETAVYYCAADVTKRASRDYYWGQGTQVTVSS", "values": [{"measurement": "polyreactivity (PSR sort gate)", "value": "high polyreactivity"}]}
{"sequence": "QVQLVESGGGLVQAGGSLRLSCAASGRTFTYYAMGWYRPAPGKERELVASISTTGRTYYADSVKGRFTISRDNAKNTVYLQMNSLKPEDTAVYYCATRSRYYYDYWGQGTQVTVSS", "values": [{"measurement": "polyreactivity (PSR sort gate)", "value": "high polyreactivity"}]}
{"sequence": "QVQLVESGGGLVQAGGSLRLSCAASGFIFGANAMGWYRPAPGKERELVASINGSGGSTFYADSVKGRFTISRDNAKNTVYLQMNSLNPEDTAVYYCAAPCFCWFTTGGYYYWGQGTQVTVSS", "values": [{"measurement": "polyreactivity (PSR sort gate)", "value": "low polyreactivity"}]}
{"sequence": "QVQLVESGGGLVQAGGSLRLSCAASGFTYYHNAMGWYRQAPGKERELVAAISSSGDSTYYADSVKGRFTISRDNAKNTVYLQMKSLKPEDTAVYYCNDYFYYLSLYYYYWFNYDYWGQGTQVTVSS", "values": [{"measurement": "polyreactivity (PSR sort gate)", "value": "low polyreactivity"}]}
{"sequence": "QVQLVESGGGLVQAGGRLRLSCAPSGIIFQQYAMGWYRQAPGKERELVAAISRGGTRTYYADSVKGRFTISRDNAKNTVYLLMNSLKPEDTAVDYCAADRGYFSYDYWGQGTQVTVSS", "values": [{"measurement": "polyreactivity (PSR sort gate)", "value": "high polyreactivity"}]}
{"sequence": "QVHLVESGGGLVQAGGSLRLSCAASGSTFKPYTMGWYRQAPGKERELVAAITSRGTSTYYADSVKGRFKISRDNAKNTVYLQMNSLKPEDTEVYYCAARRPGTFSYGYWGQGTQVTVSS", "values": [{"measurement": "polyreactivity (PSR sort gate)", "value": "high polyreactivity"}]}
